Assay [1] concerns the target T1, CD40/Fc fusion protein (human, UniProt P25942 21-193).
T1 construct: extracellular domain; also called s CD40/Fc; C40/Fc
The assay is described as follows: BIAcore, CD40/Fc captured by goat anti-human IgG1 Fc; first experiment. The procedure: (§1) This example illustrates the binding affinities of several different CD40-L constructs. Affinity experiments were conducted by biospecific interaction analysis (BIA) using a biosensor, an instrument that combines a biological recognition mechanism with a sensing device or transducer. An exemplary biosensor is BIAcore™, from Pharmacia Biosensor AB (Uppsala, Sweden; see Faigerstam L. G., Techniques in Protein Chemistry II, ed. J. J. Villafranca, Acad. Press, NY, 1991). BIAcore™ uses the optical phenomenon surface plasmon resonance (Kretschmann and Raether, Z. Naturforschung, Teil. A 23:2135, 1968) to monitor the interaction of two biological molecules.
(§2) The biosensor chips were coated with goat anti-human IgG₁ Fc, which was used to bind CD40/Fc (prepared as described in Example 1) to the chip. The different constructs of CD40-L were then added at increasing concentrations; the chip was regenerated between the different constructs by the addition of sodium hydroxide. Two separate experiments were performed. […] The resultant data were analyzed to determine the affinity and association rate constants of the different CD40-L constructs. […]
(In SPR one partner is held on a chip, and binding of the other changes the refractive index at the surface.)

Assay [2] concerns the target T1, CD40/Fc fusion protein. The assay is described as follows: biosensor (BIAcore), CD40/Fc captured on goat anti-human IgG1 Fc; equilibrium binding curve, left panel. The procedure:
as §1, §2

T1 sequence (P25942 other isoform, or with tags, fused parts or gaps limits assumed): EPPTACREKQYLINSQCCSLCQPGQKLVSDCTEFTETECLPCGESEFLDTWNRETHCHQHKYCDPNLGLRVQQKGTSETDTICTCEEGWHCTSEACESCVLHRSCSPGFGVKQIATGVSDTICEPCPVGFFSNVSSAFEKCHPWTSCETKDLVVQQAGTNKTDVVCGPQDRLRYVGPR

B1: Dimeric murine CD40-L (Fc fusion, not shown: a dimerising Fc or GST)
chain (part 1 of 2): DYKDDDDK
chain (part 2 of 2): GGGGSGGGGSGGGGSSSHRRLDKVEEEVNLHEDFVFIKKLKRCNKGEGSLSLLNCEEMRRQFEDLVKDITLNKEEKKENSFEMQRGDEDPQIAAHVVSEANSNAASVLQWAKKGYYTMKSNLVMLENGKQLTVKREGLYYVYTQVTFCSNREPSSQRPFIVGLWLKPSSGSERILLKAANTHSSSQLCEQQSVHLGGVFELQAGASVFVNVTEASQVIHRVGFSSFGLLKL
notes: also called Murine Dimer
Regarding B1, in the assay with CD40/Fc fusion protein [1], the “Site 1 (mol/mol CD40/Fc)” value was 0.05 mol/mol CD40/Fc and the “Site2 (mol/mol CD40/Fc)” value turned out to be 0.14 mol/mol CD40/Fc.

B2: Trimeric human CD40-L (ligand)
chain: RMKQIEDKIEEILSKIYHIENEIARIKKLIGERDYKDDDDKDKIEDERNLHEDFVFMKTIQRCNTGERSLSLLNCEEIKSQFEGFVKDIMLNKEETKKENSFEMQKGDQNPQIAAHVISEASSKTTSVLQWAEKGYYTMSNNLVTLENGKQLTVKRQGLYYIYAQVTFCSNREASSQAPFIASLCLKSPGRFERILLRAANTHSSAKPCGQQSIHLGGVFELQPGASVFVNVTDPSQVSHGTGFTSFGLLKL
notes: also called trimeric CD40-L; CD40-L trimer
Regarding B2, the “EC50 (read off the curve)” value with CD40/Fc fusion protein [2] was approximately 10 nM.

What is called EC50 (read off the curve) is the concentration giving half of the maximal effect.

The record behind these values is patent US20030144182A1 (IMMUNEX, published 2003).
